Experimental data from patent US20080145339, “Adeno-associated virus AAV Rep78 major regulatory protein mutants thereof and uses thereof” (University of Arkansas, published 2008).

Biological target: T1, AAV Rep78 wild-type (adeno-associated virus 2, UniProt Q89268 SEQ:1-621)
T1 sequence: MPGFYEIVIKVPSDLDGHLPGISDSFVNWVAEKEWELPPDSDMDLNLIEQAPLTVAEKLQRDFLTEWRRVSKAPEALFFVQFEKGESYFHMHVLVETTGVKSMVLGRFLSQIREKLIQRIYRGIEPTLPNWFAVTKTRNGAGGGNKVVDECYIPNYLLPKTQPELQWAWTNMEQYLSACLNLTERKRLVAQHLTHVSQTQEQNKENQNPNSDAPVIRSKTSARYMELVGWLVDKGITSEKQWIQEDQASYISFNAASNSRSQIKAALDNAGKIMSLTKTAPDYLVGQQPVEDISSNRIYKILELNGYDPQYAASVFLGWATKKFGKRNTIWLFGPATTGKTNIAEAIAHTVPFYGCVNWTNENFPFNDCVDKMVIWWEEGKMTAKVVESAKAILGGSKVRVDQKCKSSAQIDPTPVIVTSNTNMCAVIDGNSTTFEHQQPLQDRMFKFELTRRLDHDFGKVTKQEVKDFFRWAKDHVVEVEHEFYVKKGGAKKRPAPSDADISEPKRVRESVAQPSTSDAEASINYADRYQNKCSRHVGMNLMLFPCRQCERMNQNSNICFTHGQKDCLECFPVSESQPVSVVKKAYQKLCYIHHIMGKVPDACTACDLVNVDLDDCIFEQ
Experiment: EMSA; minus strand strongly recognized
Conditions: tags: MBP fusion (pMALc2, amylose purified); label: 32P

B1: HPV-16 p97 minus strand nt 14-106 (ssDNA)
DNA: CATTGCAGTTCTCTTTTGGTGCATAAAATGTCTGCTTTTATACTAACCGGTTTCGGTTCAACCGATTTCGGTTACGCCCTTAGTTTTATACAT
modifications: [NONE]
Q: Does B1 bind?
A: binds
